System: K4 kissing-loop RNA reporter
Assay: apparent KD of K4 kissing-loop reporter; higher = weaker reporter binding
Conditions: Eterna round: R107
Protocol: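 RNA-MaP round R107: designed RNA switches with theophylline, tryptophan, arginine or FMN aptamers are transcribed on-chip within common flanks. They are titrated with a labelled K4 kissing-loop RNA reporter in RNA-MaP buffer (100 mM Tris pH 7.5, 80 mM KCl, 4 mM MgCl2), without ligand or with the indicated ligand. Median apparent KD per design.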

[1] = input ligand: theophylline 20 uM
[2] = input ligand: tryptophan 2.4 mM
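Further: bound reporter read as fluorescence of individual clusters on recovered sequencing chips by microscopy, with normalized cluster intensities fitted with a binding model.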

For “AAAAUAACCCAGUGAUGUUGGUAUACAGAUACCAGCGACGAAAGUCGCCCUUGGCAGCUGUGGACGUACAAAAUAAGUACGUCCU”, the “apparent KD of K4 kissing-loop reporter” value (input ligand: FMN 200 uM) was 986 nM, the “apparent KD of K4 kissing-loop reporter” value (input ligand: arginine 13.2 mM) was 705 nM and the “apparent KD of K4 kissing-loop reporter” value (input ligand: none) was 1120 nM. For the same sequence, the “apparent KD of K4 kissing-loop reporter” value [1] was 902 nM and the “apparent KD of K4 kissing-loop reporter” value [2] was 1010 nM.

For “AAAAUAAGCCAGUGAUGUUGGUAUGCAGAUACCAGCGACGAAAGUCGCCCUUGGCAGCUGUGGACGUACAAAAUAAGUACGUCCU”, the “apparent KD of K4 kissing-loop reporter” value (input ligand: FMN 200 uM) was 253 nM, the “apparent KD of K4 kissing-loop reporter” value (input ligand: arginine 13.2 mM) was 109 nM and the “apparent KD of K4 kissing-loop reporter” value (input ligand: none) was 329 nM. For the same sequence, the “apparent KD of K4 kissing-loop reporter” value [1] was 331 nM and the “apparent KD of K4 kissing-loop reporter” value [2] was 179 nM.

In the case of “AAACAUCACUGGGAGUGAUGUUCUCAGUGACGAGGACCGGUACGGCCGCCACUCGCGAGAGAUUUAGUCUAGUCUUGACUGCAUU [Excl Tryptophan A V12]”, the “apparent KD of K4 kissing-loop reporter” value (input ligand: FMN 200 uM) is reported as 299 nM, the “apparent KD of K4 kissing-loop reporter” value (input ligand: arginine 13.2 mM) is reported as 303 nM and the “apparent KD of K4 kissing-loop reporter” value (input ligand: none) is reported as 264 nM. The “apparent KD of K4 kissing-loop reporter” value [1] was 372 nM and the “apparent KD of K4 kissing-loop reporter” value [2] was 331 nM.

“AAACAUUGGUGCGAUACCAGCUGAUCGGAAACGAUCAUGCUGGAGUGAUGUUCCAGGAAAAGCCCUUGGCAGCGCACCGAUGAAA [MAT - Same State Theophlline B - Mod of Eli - D29]” was tested, and the “apparent KD of K4 kissing-loop reporter” value (input ligand: FMN 200 uM) was 128 nM, the “apparent KD of K4 kissing-loop reporter” value (input ligand: arginine 13.2 mM) was 79.8 nM and the “apparent KD of K4 kissing-loop reporter” value (input ligand: none) was 78.5 nM. For the same sequence, the “apparent KD of K4 kissing-loop reporter” value [1] was 275 nM and the “apparent KD of K4 kissing-loop reporter” value [2] was 95.9 nM.

In the case of “AAACGUUGGUCGGAUACCAGCUUGAUCGGAAACGAUCUGCUGGAGUGAUGUUCCAAGUAAAGCCCUUGGCAGCCGACCGACGAAA [MAT - Same State Theophlline B - Mod of Eli - D18]”, the “apparent KD of K4 kissing-loop reporter” value (input ligand: FMN 200 uM) is reported as 148 nM, the “apparent KD of K4 kissing-loop reporter” value (input ligand: arginine 13.2 mM) is reported as 65.1 nM and the “apparent KD of K4 kissing-loop reporter” value (input ligand: none) is reported as 99.4 nM. For the same sequence, the “apparent KD of K4 kissing-loop reporter” value [1] was 95.4 nM and the “apparent KD of K4 kissing-loop reporter” value [2] was 71.6 nM.

With “AAACGUUGGUGCGAUACCAGCUGGUCGGAAACGACCUUGCUGGAGUGAUGUUCCAAGUAAAGCCCUUGGCAGCGCACCGACGAAA [MAT - Same State Theophlline B - Mod of Eli - D23]” the “apparent KD of K4 kissing-loop reporter” value (input ligand: FMN 200 uM) was 122 nM, the “apparent KD of K4 kissing-loop reporter” value (input ligand: arginine 13.2 mM) was 53.6 nM and the “apparent KD of K4 kissing-loop reporter” value (input ligand: none) was 43.2 nM. The “apparent KD of K4 kissing-loop reporter” value [1] was 135 nM and the “apparent KD of K4 kissing-loop reporter” value [2] was 93.9 nM.

With “AAAGUUGAAAGUGAUACCAGACGAGUGAAGGGAAGUAAUUAAUUUGGAGUGAUGUUCCGCGUCCCUUGGCAGCAUUUUGUAAUUU [Exclusion Theophylline B GF 24]” the “apparent KD of K4 kissing-loop reporter” value (input ligand: FMN 200 uM) was 166 nM, the “apparent KD of K4 kissing-loop reporter” value (input ligand: arginine 13.2 mM) was 195 nM and the “apparent KD of K4 kissing-loop reporter” value (input ligand: none) was 189 nM. The “apparent KD of K4 kissing-loop reporter” value [1] was 186 nM and the “apparent KD of K4 kissing-loop reporter” value [2] was 153 nM.

In the case of “AAAUAAAGCAGUCACCCAGUGAUGUUGGAAGGAGCGUGCGAAAGCACAGGUAGGUCGCCGAUAAGGACAAAGUCCAGUGGCUGCA [#SwitchBubble 28 #K4Early]”, the “apparent KD of K4 kissing-loop reporter” value (input ligand: FMN 200 uM) is reported as 458 nM, the “apparent KD of K4 kissing-loop reporter” value (input ligand: arginine 13.2 mM) is reported as 344 nM and the “apparent KD of K4 kissing-loop reporter” value (input ligand: none) is reported as 595 nM. The “apparent KD of K4 kissing-loop reporter” value [1] was 590 nM and the “apparent KD of K4 kissing-loop reporter” value [2] was 283 nM.

“AAAUAGAUCAGUCACCCAGUGAUGUUGGAAGGAGCGUGCGAAAGCACAGGUAGGUCGCCAGAAUAAAAGUGGCUGAUCAAAAUAA” was tested, and the “apparent KD of K4 kissing-loop reporter” value (input ligand: FMN 200 uM) was 512 nM, the “apparent KD of K4 kissing-loop reporter” value (input ligand: arginine 13.2 mM) was 358 nM and the “apparent KD of K4 kissing-loop reporter” value (input ligand: none) was 519 nM. For the same sequence, the “apparent KD of K4 kissing-loop reporter” value [1] was 513 nM and the “apparent KD of K4 kissing-loop reporter” value [2] was 366 nM.

In the case of “AAAUAGAUCAGUCACCCAGUGAUGUUGGAAGGAGCGUGCGAAAGCACAGGUAGGUCGCCAUAAUAAAAGUGGCUGAUCAAAAUAA”, the “apparent KD of K4 kissing-loop reporter” value (input ligand: FMN 200 uM) is reported as 446 nM, the “apparent KD of K4 kissing-loop reporter” value (input ligand: arginine 13.2 mM) is reported as 287 nM and the “apparent KD of K4 kissing-loop reporter” value (input ligand: none) is reported as 487 nM. For the same sequence, the “apparent KD of K4 kissing-loop reporter” value [1] was 534 nM and the “apparent KD of K4 kissing-loop reporter” value [2] was 310 nM.

“AAAUUUAUAUUAGAUACCAGCAUUUUGAAUGUUUAUUAUGACAAGAGUGAUGUUCUUGUAUGCCCUUGGCAGCUGGUAUGGGUUU [KL-XTheo-B24]” was tested, and the “apparent KD of K4 kissing-loop reporter” value (input ligand: FMN 200 uM) was 123 nM, the “apparent KD of K4 kissing-loop reporter” value (input ligand: arginine 13.2 mM) was 115 nM and the “apparent KD of K4 kissing-loop reporter” value (input ligand: none) was 136 nM. The “apparent KD of K4 kissing-loop reporter” value [1] was 120 nM and the “apparent KD of K4 kissing-loop reporter” value [2] was 125 nM.

For “AAAUUUAUAUUAGAUACCAGUUUAAUGGAUGUAAAUUAUGACAUGAGUGAUGUUCAUGUAAGCCCUUGGCAGCUGGUAUGGGUUU [KL-XTheo-B21]”, the “apparent KD of K4 kissing-loop reporter” value (input ligand: FMN 200 uM) was 127 nM, the “apparent KD of K4 kissing-loop reporter” value (input ligand: arginine 13.2 mM) was 110 nM and the “apparent KD of K4 kissing-loop reporter” value (input ligand: none) was 121 nM. For the same sequence, the “apparent KD of K4 kissing-loop reporter” value [1] was 116 nM and the “apparent KD of K4 kissing-loop reporter” value [2] was 115 nM.

With “AAAUUUAUAUUAGAUACCAGUUUAUUGGAUGUAAAUUAUGACAUGAGUGAUGUUCAUGUAAGCCCUUGGCAGCUGGUAUGGGUUU [KL-XTheo-B22]” the “apparent KD of K4 kissing-loop reporter” value (input ligand: FMN 200 uM) was 132 nM, the “apparent KD of K4 kissing-loop reporter” value (input ligand: arginine 13.2 mM) was 119 nM and the “apparent KD of K4 kissing-loop reporter” value (input ligand: none) was 127 nM. The “apparent KD of K4 kissing-loop reporter” value [1] was 124 nM and the “apparent KD of K4 kissing-loop reporter” value [2] was 114 nM.

For “AACCUACGAUCACAAUAGUGAUUGUAGGACUAGGAUAUGCUGAAAAGCAGAAGGAGUGAUGUUCCGUCAUGAAUAACAUGACAAA [FmnAX 3 #OpenEnded #K4Late #CoaxialStacking]”, the “apparent KD of K4 kissing-loop reporter” value (input ligand: FMN 200 uM) was 610 nM, the “apparent KD of K4 kissing-loop reporter” value (input ligand: arginine 13.2 mM) was 465 nM and the “apparent KD of K4 kissing-loop reporter” value (input ligand: none) was 455 nM. For the same sequence, the “apparent KD of K4 kissing-loop reporter” value [1] was 497 nM and the “apparent KD of K4 kissing-loop reporter” value [2] was 357 nM.

In the case of “AACGUUUUGAGAAGGAGCGCGUUAAGCAGUGAUGUUGCUUUAUUAUAUUUACUACAUAUUUCGCAGGUAGGUCGCUCAAUACGUA [JR_Nu_SSArginiB_Sub025]”, the “apparent KD of K4 kissing-loop reporter” value (input ligand: FMN 200 uM) is reported as 154 nM, the “apparent KD of K4 kissing-loop reporter” value (input ligand: arginine 13.2 mM) is reported as 153 nM and the “apparent KD of K4 kissing-loop reporter” value (input ligand: none) is reported as 148 nM. For the same sequence, the “apparent KD of K4 kissing-loop reporter” value [1] was 152 nM and the “apparent KD of K4 kissing-loop reporter” value [2] was 123 nM.

With “AACUGUCAAGGACAACAUUACUGAGGUGAUACCAGGUUUGAGAGGAUCCCUUGGCAGCACCAACUUGCAGUGAUGUUGCAAGUAA [BrourdMod 15 - Jieux - Exclusion - Theophylline A]” the “apparent KD of K4 kissing-loop reporter” value (input ligand: FMN 200 uM) was 243 nM, the “apparent KD of K4 kissing-loop reporter” value (input ligand: arginine 13.2 mM) was 211 nM and the “apparent KD of K4 kissing-loop reporter” value (input ligand: none) was 240 nM. For the same sequence, the “apparent KD of K4 kissing-loop reporter” value [1] was 254 nM and the “apparent KD of K4 kissing-loop reporter” value [2] was 243 nM.
